Laboratory results published in article PMC10755698.
Read-outs that look alike come from different tables or passages of the source.

Tests used:
Test in all cases: native MS
[1] = target: T1, Lassa virus nucleoprotein NP (wild type) (Lassa virus, AV strain, UniProt Q9DQX7)
[2] = target: T1, Lassa virus nucleoprotein NP (wild type); remark: listed apart in the source
[3] = target: T1, Lassa virus nucleoprotein NP (wild type); remark: listed apart in the source

| Binder | binding result [2] | binding result [3] | also measured |
| --- | --- | --- | --- |
| CGGACACACAAAAAGAAA (ssRNA) [18 nt RNA] | – | – | binding result [1]: binds |
| UAGGAAUCU (ssRNA) [9 nt RNA] | binds | – | – |
| ACACAAAGACCC (ssRNA) [12 nt RNA] | binds | – | – |
| GCCUAGGAUCCACUGUGCGUGUUGU (ssRNA) [25 nt RNA] | – | binds | – |
| ACCAACACACCAACAACAACCUGUGCG (ssRNA) [27 nt RNA] | – | binds | – |
